Consider 1 variant from IntAct's records for PubMed 10946006.

B1: Microsomal triglyceride transfer protein large subunit (Homo sapiens), P55157 (parent)
chain: MILLAVLFLCFISSYSASVKGHTTGLSLNNDRLYKLTYSTEVLLDRGKGKLQDSVGYRISSNVDVALLWRNPDGDDDQLIQITMKDVNVENVNQQRGEKSIFKGKSPSKIMGKENLEALQRPTLLHLIHGKVKEFYSYQNEAVAIENIKRGLASLFQTQLSSGTTNEVDISGNCKVTYQAHQDKVIKIKALDSCKIARSGFTTPNQVLGVSSKATSVTTYKIEDSFVIAVLAEETHNFGLNFLQTIKGKIVSKQKLELKTTEAGPRLMSGKQAAAIIKAVDSKYTAIPIVGQVFQSHCKGCPSLSELWRSTRKYLQPDNLSKAEAVRNFLAFIQHLRTAKKEEILQILKMENKEVLPQLVDAVTSAQTSDSLEAILDFLDFKSDSSIILQERFLYACGFASHPNEELLRALISKFKGSIGSSDIRETVMIITGTLVRKLCQNEGCKLKAVVEAKKLILGGLEKAEKKEDTRMYLLALKNALLPEGIPSLLKYAEAGEGPISHLATTALQRYDLPFITDEVKKTLNRIYHQNRKVHEKTVRTAAAAIILNNNPSYMDVKNILLSIGELPQEMNKYMLAIVQDILRFEMPASKIVRRVLKEMVAHNYDRFSRSGSSSAYTGYIERSPRSASTYSLDILYSGSGILRRSNLNIFQYIGKAGLHGSQVVIEAQGLEALIAATPDEGEENLDSYAGMSAILFDVQLRPVTFFNGYSDLMSKMLSASGDPISVVKGLILLIDHSQELQLQSGLKANIEVQGGLAIDISGAMEFSLWYRESKTRVKNRVTVVITTDITVDSSFVKAGLETSTETEAGLEFISTVQFSQYPFLVCMQMDKDEAPFRQFEKKYERLSTGRGYVSQKRKESVLAGCEFPLHQENSEMCKVVFAPQPDSTSSGWF
partner: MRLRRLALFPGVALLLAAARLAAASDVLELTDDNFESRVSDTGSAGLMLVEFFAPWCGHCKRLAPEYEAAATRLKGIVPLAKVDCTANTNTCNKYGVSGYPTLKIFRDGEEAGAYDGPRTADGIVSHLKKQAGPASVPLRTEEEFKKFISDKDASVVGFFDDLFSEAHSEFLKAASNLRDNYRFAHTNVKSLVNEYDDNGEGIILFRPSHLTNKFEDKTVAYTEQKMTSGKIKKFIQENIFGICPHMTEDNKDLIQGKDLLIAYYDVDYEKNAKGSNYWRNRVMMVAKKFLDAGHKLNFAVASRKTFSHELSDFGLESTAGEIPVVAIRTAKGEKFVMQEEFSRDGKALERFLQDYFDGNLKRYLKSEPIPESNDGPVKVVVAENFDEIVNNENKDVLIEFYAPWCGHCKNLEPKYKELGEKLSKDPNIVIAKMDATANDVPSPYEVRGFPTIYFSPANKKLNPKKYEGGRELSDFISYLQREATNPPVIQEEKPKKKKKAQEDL

The variants in the assay derive from B1. The following applies: with pdia3_chlae PDIA3, Q4VIT4.
As to N780Y, the “effect of a mutation on the interaction” value is “with no effect”.
